# Numbering of substitutions follows the chain as printed. Bridge positions count the residues as written; N and C are the ends. Square brackets hold non-standard residues; d marks the D form. Ends that are not written are not given here. 1Nal = N[C@@H](Cc1cccc2ccccc12)C(=O)O; hArg = N=C(N)NCCCC[C@H](N)C(=O)O; Cit = NC(=O)NCCC[C@H](N)C(=O)O; Phg = N[C@H](C(=O)O)c1ccccc1; Aze = O=C(O)[C@@H]1CCN1; Ahx = NCCCCCC(=O)O
# B1: SEQ ID NO 918 (peptide)
# peptide: Ac-WVTH[Cit]LAGLLS[Cit]SGGVVRKNFVPTDVGPKAF-NH2
# SMILES: CC(=O)N[C@@H](Cc1c[nH]c2ccccc12)C(=O)N[C@H](C(=O)N[C@H](C(=O)N[C@@H](Cc1c[nH]cn1)C(=O)N[C@@H](CCCNC(N)=O)C(=O)N[C@@H](CC(C)C)C(=O)N[C@@H](C)C(=O)NCC(=O)N[C@@H](CC(C)C)C(=O)N[C@@H](CC(C)C)C(=O)N[C@@H](CO)C(=O)N[C@@H](CCCNC(N)=O)C(=O)N[C@@H](CO)C(=O)NCC(=O)NCC(=O)N[C@H](C(=O)N[C@H](C(=O)N[C@@H](CCCNC(=N)N)C(=O)N[C@@H](CCCCN)C(=O)N[C@@H](CC(N)=O)C(=O)N[C@@H](Cc1ccccc1)C(=O)N[C@H](C(=O)N1CCC[C@H]1C(=O)N[C@H](C(=O)N[C@@H](CC(=O)O)C(=O)N[C@H](C(=O)NCC(=O)N1CCC[C@H]1C(=O)N[C@@H](CCCCN)C(=O)N[C@@H](C)C(=O)N[C@@H](Cc1ccccc1)C(N)=O)C(C)C)[C@@H](C)O)C(C)C)C(C)C)C(C)C)[C@@H](C)O)C(C)C
# B2: PEG-peptide of SEQ ID NO 907 (peptide)
# peptide: Ac-WVEH[Cit]LKGLLS[Cit]SGGVV[hArg]KNFVPTDVGPFAF-NH2
# modifications: lactam 3-7; also: PEG-conjugated, in most cases at Lys25
# B3: SEQ ID NO 906 (peptide)
# peptide: Ac-WVEHRLKGLLS[Cit]SGGVV[hArg]KNFVPTDVGPFAF-NH2
# modifications: lactam 3-7
# B4: SEQ ID NO 920 (peptide)
# peptide: WVTHXLAGLLSXSGGVVRKNFVPTDVGXFAF
# modifications: Ac-WVTH[Cit]LAGLLS[Cit]SGGVVRKNFVPTDVG[Oic]FAF-NH2
# B5: SEQ ID NO 924 (peptide)
# peptide: B4 peptide with R18X, X28P, F29X
# modifications: Ac-WVTH[hArg]LAGLLS[Cit]SGGVV[hArg]KNFVPTDVGP[1-Nal]AF-NH2
# B6: SEQ ID NO 927 (peptide)
# peptide: B4 peptide with R18X, X28P, F29X
# modifications: Ac-WVTH[Cit]LAGLLS[Cit]SGGVV[hArg]KNFVPTDVGP[1-Nal]AF-NH2
# B7: SEQ ID NO 929 (peptide)
# peptide: B4 peptide with R18X, X28P, F29X
# modifications: Ac-WVTH[Cit]LAGLLS[Cit]SGGVV[hArg]KNFVPTDVGP[Bip]AF-NH2
# B8: SEQ ID NO 921 (peptide)
# peptide: B4 peptide with P23X
# modifications: Ac-WVTH[Cit]LAGLLS[Cit]SGGVVRKNFV[Oic]TDVG[Oic]FAF-NH2
# B9: PEG-peptide of SEQ ID NO 927 (peptide)
# peptide: B4 peptide with R18X, X28P, F29X
# modifications: Ac-WVTH[Cit]LAGLLS[Cit]SGGVV[hArg]KNFVPTDVGP[1-Nal]AF-NH2; PEG-conjugated (Table 2C: in most cases at Lys^25)
# B10: PEG-peptide of SEQ ID NO 926 (peptide)
# peptide: B4 peptide with R18X, X28P, F29X
# modifications: Ac-WVTH[hArg]LAGLLS[Cit]SGGVV[hArg]KNFVPTDVGP[2-Nal]AF-NH2; PEG-conjugated (Table 2C: in most cases at Lys^25)
# B11: SEQ ID NO 923 (peptide)
# peptide: B4 peptide with X28P, F31X
# modifications: Ac-WVTH[Cit]LAGLLS[Cit]SGGVVRKNFVPTDVGPFA[pI-Phe]-NH2
# B12: SEQ ID NO 926 (peptide)
# peptide: B4 peptide with R18X, X28P, F29X
# modifications: Ac-WVTH[hArg]LAGLLS[Cit]SGGVV[hArg]KNFVPTDVGP[2-Nal]AF-NH2
# B13: SEQ ID NO 909 (peptide)
# peptide: Ac-WVEH[hArg]LKGLLS[Cit]SG[Aze]VV[hArg]KNFVPTDVGPFAF-NH2
# modifications: lactam 3-7
# SMILES: CC(=O)N[C@@H](Cc1c[nH]c2ccccc12)C(=O)N[C@H](C(=O)N[C@H]1CCC(=O)NCCCC[C@@H](C(=O)NCC(=O)N[C@@H](CC(C)C)C(=O)N[C@@H](CC(C)C)C(=O)N[C@@H](CO)C(=O)N[C@@H](CCCNC(N)=O)C(=O)N[C@@H](CO)C(=O)NCC(=O)N2CC[C@H]2C(=O)N[C@H](C(=O)N[C@H](C(=O)N[C@@H](CCCCNC(=N)N)C(=O)N[C@@H](CCCCN)C(=O)N[C@@H](CC(N)=O)C(=O)N[C@@H](Cc2ccccc2)C(=O)N[C@H](C(=O)N2CCC[C@H]2C(=O)N[C@H](C(=O)N[C@@H](CC(=O)O)C(=O)N[C@H](C(=O)NCC(=O)N2CCC[C@H]2C(=O)N[C@@H](Cc2ccccc2)C(=O)N[C@@H](C)C(=O)N[C@@H](Cc2ccccc2)C(N)=O)C(C)C)[C@@H](C)O)C(C)C)C(C)C)C(C)C)NC(=O)[C@H](CC(C)C)NC(=O)[C@H](CCCCNC(=N)N)NC(=O)[C@H](Cc2c[nH]cn2)NC1=O)C(C)C
# B14: SEQ ID NO 916 (peptide)
# peptide: C[Ahx]WVTHRLAGLLSRSGGVVRKNFVPTDVGPFAF-NH2
# modifications: N-terminus assumed
# SMILES: CC(C)C[C@H](NC(=O)CNC(=O)[C@H](C)NC(=O)[C@H](CC(C)C)NC(=O)[C@H](CCCNC(=N)N)NC(=O)[C@H](Cc1c[nH]cn1)NC(=O)[C@@H](NC(=O)[C@@H](NC(=O)[C@H](Cc1c[nH]c2ccccc12)NC(=O)CCCCCNC(=O)[C@@H](N)CS)C(C)C)[C@@H](C)O)C(=O)N[C@@H](CC(C)C)C(=O)N[C@@H](CO)C(=O)N[C@@H](CCCNC(=N)N)C(=O)N[C@@H](CO)C(=O)NCC(=O)NCC(=O)N[C@H](C(=O)N[C@H](C(=O)N[C@@H](CCCNC(=N)N)C(=O)N[C@@H](CCCCN)C(=O)N[C@@H](CC(N)=O)C(=O)N[C@@H](Cc1ccccc1)C(=O)N[C@H](C(=O)N1CCC[C@H]1C(=O)N[C@H](C(=O)N[C@@H](CC(=O)O)C(=O)N[C@H](C(=O)NCC(=O)N1CCC[C@H]1C(=O)N[C@@H](Cc1ccccc1)C(=O)N[C@@H](C)C(=O)N[C@@H](Cc1ccccc1)C(N)=O)C(C)C)[C@@H](C)O)C(C)C)C(C)C)C(C)C
# B15: SEQ ID NO 928 (peptide)
# peptide: WVTHXLAGLLSXSGGVVXKNXVPTDVGPXAF
# modifications: Ac-WVTH[Cit]LAGLLS[Cit]SGGVV[hArg]KN[pI-Phe]VPTDVGP[pI-Phe]AF-NH2
# B16: PEG-peptide of SEQ ID NO 928 (peptide)
# peptide: B15 peptide
# modifications: Ac-WVTH[Cit]LAGLLS[Cit]SGGVV[hArg]KN[pI-Phe]VPTDVGP[pI-Phe]AF-NH2; PEG-conjugated (Table 2C: in most cases at Lys^25)
# B17: SEQ ID NO 912 (peptide)
# peptide: WVTHRLAGLLSRSGGVVRKNXVPTDVGPFAF
# modifications: Ac-WVTHRLAGLLSRSGGVVRKN[2-Nal]VPTDVGPFAF-NH2
# B18: SEQ ID NO 913 (peptide)
# peptide: B17 peptide with X21F, F31X
# modifications: Ac-WVTHRLAGLLSRSGGVVRKNFVPTDVGPFA[2-Nal]-NH2
# B19: SEQ ID NO 914 (peptide)
# peptide: B17 peptide with X21F, F31X
# modifications: Ac-WVTHRLAGLLSRSGGVVRKNFVPTDVGPFA[1-Nal]-NH2
# B20: SEQ ID NO 922 (peptide)
# peptide: B17 peptide with R5X, R12X, F31X
# modifications: Ac-WVTH[Cit]LAGLLS[Cit]SGGVVRKN[pI-Phe]VPTDVGPFA[pI-Phe]-NH2
# B21: SEQ ID NO 915 (peptide)
# peptide: Ac-WVTHRLAGLLSRSGGVVRKNFVPTDVGSKAF-NH2
# B22: PEG-peptide of SEQ ID NO 906 (peptide)
# peptide: Ac-WVEHRLKGLLS[Cit]SGGVV[hArg]KNFVPTDVGPFAF-NH2
# modifications: lactam 3-7; also: PEG-conjugated, in most cases at Lys25
# B23: SEQ ID NO 925 (peptide)
# peptide: Ac-WVTH[hArg]LAGLLS[Cit]SGGVV[hArg]KNFVPTDVGPFA[Phg]-NH2
# SMILES: CC(=O)N[C@@H](Cc1c[nH]c2ccccc12)C(=O)N[C@H](C(=O)N[C@H](C(=O)N[C@@H](Cc1c[nH]cn1)C(=O)N[C@@H](CCCCNC(=N)N)C(=O)N[C@@H](CC(C)C)C(=O)N[C@@H](C)C(=O)NCC(=O)N[C@@H](CC(C)C)C(=O)N[C@@H](CC(C)C)C(=O)N[C@@H](CO)C(=O)N[C@@H](CCCNC(N)=O)C(=O)N[C@@H](CO)C(=O)NCC(=O)NCC(=O)N[C@H](C(=O)N[C@H](C(=O)N[C@@H](CCCCNC(=N)N)C(=O)N[C@@H](CCCCN)C(=O)N[C@@H](CC(N)=O)C(=O)N[C@@H](Cc1ccccc1)C(=O)N[C@H](C(=O)N1CCC[C@H]1C(=O)N[C@H](C(=O)N[C@@H](CC(=O)O)C(=O)N[C@H](C(=O)NCC(=O)N1CCC[C@H]1C(=O)N[C@@H](Cc1ccccc1)C(=O)N[C@@H](C)C(=O)N[C@H](C(N)=O)c1ccccc1)C(C)C)[C@@H](C)O)C(C)C)C(C)C)C(C)C)[C@@H](C)O)C(C)C
# B24: SEQ ID NO 917 (peptide)
# peptide: Ac-WVTHRLAGLLSRSGGVVRKNFVPTDVGPKAF-NH2
# B25: SEQ ID NO 910 (peptide)
# peptide: Ac-[1Nal]VEH[hArg]LKGLLS[Cit]SG[Aze]VV[hArg]KNFVPTDVGPFAF-NH2
# SMILES: CC(=O)N[C@@H](Cc1cccc2ccccc12)C(=O)N[C@H](C(=O)N[C@@H](CCC(=O)O)C(=O)N[C@@H](Cc1c[nH]cn1)C(=O)N[C@@H](CCCCNC(=N)N)C(=O)N[C@@H](CC(C)C)C(=O)N[C@@H](CCCCN)C(=O)NCC(=O)N[C@@H](CC(C)C)C(=O)N[C@@H](CC(C)C)C(=O)N[C@@H](CO)C(=O)N[C@@H](CCCNC(N)=O)C(=O)N[C@@H](CO)C(=O)NCC(=O)N1CC[C@H]1C(=O)N[C@H](C(=O)N[C@H](C(=O)N[C@@H](CCCCNC(=N)N)C(=O)N[C@@H](CCCCN)C(=O)N[C@@H](CC(N)=O)C(=O)N[C@@H](Cc1ccccc1)C(=O)N[C@H](C(=O)N1CCC[C@H]1C(=O)N[C@H](C(=O)N[C@@H](CC(=O)O)C(=O)N[C@H](C(=O)NCC(=O)N1CCC[C@H]1C(=O)N[C@@H](Cc1ccccc1)C(=O)N[C@@H](C)C(=O)N[C@@H](Cc1ccccc1)C(N)=O)C(C)C)[C@@H](C)O)C(C)C)C(C)C)C(C)C)C(C)C
# B26: SEQ ID NO 908 (peptide)
# peptide: Ac-WVEH[hArg]LKGLLS[Cit]SGGVV[hArg]KNFVPTDVGPFAF-NH2
# modifications: lactam 3-7
# SMILES: CC(=O)N[C@@H](Cc1c[nH]c2ccccc12)C(=O)N[C@H](C(=O)N[C@H]1CCC(=O)NCCCC[C@@H](C(=O)NCC(=O)N[C@@H](CC(C)C)C(=O)N[C@@H](CC(C)C)C(=O)N[C@@H](CO)C(=O)N[C@@H](CCCNC(N)=O)C(=O)N[C@@H](CO)C(=O)NCC(=O)NCC(=O)N[C@H](C(=O)N[C@H](C(=O)N[C@@H](CCCCNC(=N)N)C(=O)N[C@@H](CCCCN)C(=O)N[C@@H](CC(N)=O)C(=O)N[C@@H](Cc2ccccc2)C(=O)N[C@H](C(=O)N2CCC[C@H]2C(=O)N[C@H](C(=O)N[C@@H](CC(=O)O)C(=O)N[C@H](C(=O)NCC(=O)N2CCC[C@H]2C(=O)N[C@@H](Cc2ccccc2)C(=O)N[C@@H](C)C(=O)N[C@@H](Cc2ccccc2)C(N)=O)C(C)C)[C@@H](C)O)C(C)C)C(C)C)C(C)C)NC(=O)[C@H](CC(C)C)NC(=O)[C@H](CCCCNC(=N)N)NC(=O)[C@H](Cc2c[nH]cn2)NC1=O)C(C)C
# Target: CGRP1 receptor (CRLR/RAMP1 complex) of human neuroblastoma SK-N-MC cells (human, UniProt Q16602 23-461; O60894 27-148)
# Test: cell-based or functional assay
# Sequence of CGRP1 receptor (CRLR/RAMP1 complex) of human neuroblastoma SK-N-MC cells (Q16602 23-461, chain 1 of 2): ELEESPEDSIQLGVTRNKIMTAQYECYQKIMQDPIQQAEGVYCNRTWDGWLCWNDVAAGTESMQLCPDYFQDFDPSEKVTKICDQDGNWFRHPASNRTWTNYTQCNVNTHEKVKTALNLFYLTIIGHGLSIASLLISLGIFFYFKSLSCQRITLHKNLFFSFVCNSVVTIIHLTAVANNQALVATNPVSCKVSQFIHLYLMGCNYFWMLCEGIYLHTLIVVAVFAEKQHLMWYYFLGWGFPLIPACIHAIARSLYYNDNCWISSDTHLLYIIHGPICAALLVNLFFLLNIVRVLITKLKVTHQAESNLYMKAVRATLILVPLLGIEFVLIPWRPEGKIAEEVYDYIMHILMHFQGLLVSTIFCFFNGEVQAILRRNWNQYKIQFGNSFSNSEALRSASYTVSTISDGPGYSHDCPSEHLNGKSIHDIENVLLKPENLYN
# Sequence of CGRP1 receptor (CRLR/RAMP1 complex) of human neuroblastoma SK-N-MC cells (O60894 27-148, chain 2 of 2): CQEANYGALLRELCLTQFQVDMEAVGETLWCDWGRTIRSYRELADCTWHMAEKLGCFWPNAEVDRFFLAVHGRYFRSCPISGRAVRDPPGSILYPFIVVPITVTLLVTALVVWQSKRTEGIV
Peptide IC50 [nM],PEG-peptide IC50 [nM],Binder
1.48,,B1
,4.87,B2
1.15,,B3
0.85,,B4
2.18,,B5
1.28,,B6
1.76,,B7
0.93,,B8
,2.54,B9
,2.39,B10
2.24,,B11
0.88,,B12
3.45,,B13
1.8,,B14
1.16,,B15
,11.4,B16
1.16,,B17
1.72,,B18
33.1,,B19
2.21,,B20
1.15,,B21
,2.29,B22
6.78,,B23
1,,B24
2.31,,B25
1.28,,B26

# Source: patent US20080020978A1 (Amgen, published 2008)
